Source: the supplement of paper PMC9170038

system: K4 kissing-loop RNA reporter; assay: apparent KD of K4 kissing-loop reporter; higher = weaker reporter binding; conditions: Eterna round: R107; input ligand: theophylline 20 uM
Description: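 RNA-MaP round R107: designed RNA switches with theophylline, tryptophan, arginine or FMN aptamers are transcribed on-chip within common flanks. They are titrated with a labelled K4 kissing-loop RNA reporter in RNA-MaP buffer (100 mM Tris pH 7.5, 80 mM KCl, 4 mM MgCl2), without ligand or with the indicated ligand. Median apparent KD per design.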
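Note: bound reporter read as fluorescence of individual clusters on recovered sequencing chips by microscopy, with normalized cluster intensities fitted with a binding model.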

Sequence	apparent KD of K4 kissing-loop reporter [nM]
UAGGCCGCAUACAUUAGAUAAGGUACCGAUACCAGCCUCGCACCAGGCCCUUGGCAGCGGCAUCAAAUGGGUAGUGAUGUUACCU [theeternabot_exclusion_KL_Theo_A_20]	144
GUUACGCAUGGAAGGAGCGCACUCCGAUUGGGCGACACAGUGAUGUUGUGGUUCGUUCGAAUGCAGGUAGGUCGCCAUGUGUAAC [Ex Arginine B K4 20]	153
AACACUCACGGAGUGAUGUUCUGGAAUAAACGAGGACCGGUACGGCCGCCACUCGAAAAUGAGUGAGUCCUACGAAAAGUAGGAC [Omei inspired 4]	405
AAUUUAUAUUUAUUCUUUAAAUGUUCAGAAGGAGCGUGAAUUAUCACAGGUAGGUCGCUGAGCUAGUGAUGUUGGCUAUAUACUA [whbob_Ex_Arginine_A_2t124]	217
GGCACUUUUGGUAGAAACCAUCUACCUCUAUAGGAUAUGCCGAAAGGCAGAAGGAUAGACCUACAGAGUGAUGUUCUGCGUGCCU	460
GCCCGGGCGAGUGAUGUUCGCCCACGUGAUACCAGUGCCAUCCAACACCCUUGGCAGCACGCGGGCAGUGAUGUUGCCCUUGUAU [Exclusion Theophylline A GF 4]	138
UGCAUGCUUAGAGUGAUGUUCUAAGAUGAUACCAGUGCUUUUUUGCACCCUUGGCAGCGUCUGAUUGCAUGCACGUCGAAAGACG	266
AUGCGCAGCCUGCUUACGUAUGAGCCGGAAGGAGCGGCAGAAUUGCCAGGUAGGUCGCCGGCCCAGUGAUGUUGGGAUGGUGUGG [Atusqubela]	419
ACGUGCACCAGUGAUGUUGGAAAAUAUGAAGGAGCGGGAGAAAGCCCAGGUAGGUCGCAUAAUAGCACGAGCCACGAAAGUGGCA	141
CGUUUAUAGCAGGAUACCAGUACCCAUUAAGUACGUUAAUAGUAGAGUGAUGUUCUAAAGUACCCUUGGCAGCUUCCCGUGACCC [ExTheophylB.X]	176
UGACAUUGCUCAGAUACCAGACAUGAGCAUCAGCCAUGUACCAAGAAAACGUACAUAAAUGUCCCUUGGCAGCUGAGCAAUGUCU [TheoBX 10]	89

same assay, conditions: Eterna round: R107; input ligand: tryptophan 2.4 mM

Sequence	apparent KD of K4 kissing-loop reporter [nM]
GCUAUGGUAGGAAGGAGCGCUUAUUUAUUUUUAAGAGUGAUGUUCGAUAGUAGAUAUUUAAAGCAGGUAGGUCGCCUACUAUAGC [Arginine B K4 13]	71.5
UUUUUGGUUUAGAGUGAUGUUCCUUGUAUUCGAGGACCGGUACGGCCGCCACUCGAAUAGAAAAGAAAAGAAAAGAGUGAUGUUU [BDazzled - #3 SS Tryptophan A]	252
UGUACUAUUGUGAGUGAUGUUCACUUCGAUACCAGCAGAGCGAUCUGCCCUUGGCAGCGAGUUAACUGCCGAAAGGCAAGGAUUA [Theo B SS t9]	378
AGGAUGUAGUGAUGUUAUAUAAGAAGUAAACGAGGACCGGUACGGCCGCCACUCGAAGCGGCUACUAGCGCGUUGCGAGGUGCGC [ExTryptoA.Cc]	286
CUAUAGACCCUUCGGAUAGUGAUGUUGUCACGAGGACCGGUACGGCCGCCACUCGCUGCCACCAUACCGCUUCACGGAACGAGCA [theeternabot_exclusion_KL_Trp_A_7]	169
AAACAACUUGACGAUACCAGCUUACUCGGCAAGCCAGUGAUGUUGGUGAAAAGGAGUCAAAGCCCUUGGCAGCGUCGAAGGUCUG [Raatarerin]	258
CGCCGCAACUGAAGGAGCGCGCCAGUGAUGUUGGACGGCUUUGUCAAGGAAACUGCACCGGUGCAGGUAGGUCGCAGUUCGCGGU [Dilea]	252
GUAUGUGGAAACACGUACUUGUAUCCUAGGCAGGAUAUGCGGAAACGCAGAAGGGCCACCGGCGAGUUUAUCCAGUGAUGUUGGA [Ex FMN A 9]	237
AAUAAAAUCACGGCCGCCACUGAAUAAUUACAAAGUAGUGAUGUUACUUUACAUAUCUUAUUUAACAGGACCGGGUGAAUAUUUA [JR_ExcTryptoB_Sub007]	78.3
GAACGGCGGGCGGCCGCCACUGGUAUACGAGUGAUGUUCGGAUAUACAUAAAAUAAGGUAAUUAACAGGACCGGGUCAGAGCCGG [Tryptophan B Same State; Euphoria Solution]	118
GAACAUAGUAAAGGAUAUUCCUGCCUCGCGCGAUUGAUUAGUGAUGUUGACGAUAUCGCUUUGAGGGAAGAAGGUUAACAAGUCA [theeternabot_exclusion_KL_FMN_B_4]	596
CCGGAUUAUGCGGCCGCCACUGAGAAAUUGGAGGUACGCCCUCCCGAUAGUGAUGUUAUCCAUUACAGGACCGGGCAUCUCCUCU [theeternabot_sameState_KL_Trp_B_23]	325
UUAUUAAUCACAGAUACCAGUCCAGAAUGAAUACUAUAGUGAUGUUAUAAUAAAGGGAAGGACCCUUGGCAGCUGUAAUAUAUUU [AstrosSsTheB#2]	320
AAGUUUUAUAAACUCAUGGUUUCGUCAGAUACCAGCCUCGAGAGAGGCCCUUGGCAGCUGCAUGAGUGAUGUUCAUGUUCGAAGA [KL_XTheoA8]	251
GGGAGUAGUGCGGCCGCCACUGUGAGGGAAGAAGAAUAUAGUGAUGUUAUAUAGGAAGGGAAGAAUAGGACCGGGCAUUAGAUUU [SSTRyptB.aB]	198
UCCUAGGCUCGAAAGAGCCUAGGAUUUACUCAGGAUAUCCGGAAACGGAGAAGGGAGUGACUAGUGAUGUUAGGGACUCCCUAAA	90.6
AAAUAUAGUGAUGUUAUAUAUAUAUGUGAUACCAGAGAAAGAAAACUCCCUUGGCAGCACGAGAGAGAAUUUUUUUUUUAUAUAU [AstrosSSTheA#1]	245
GGGUCAUGGAACGGAUAAGUGAUGUUUACCCGAGGACCGGUACGGCCGCCACUCGGUCGUUAUUUCCGACGUGCUGGUAAGACUA [theeternabot_exclusion_KL_Trp_A_10]	475
AGACUACUGACAGGAUAUAACAUCCUAGUCGUAUACCGAAAGGUAUACGAUUCCCUUCUAGUGAUGUUAGAAGGGUCGGUAGUCA [Omei KL FMN B Exc B v13]	101
UGUGUUUACCUGACUCAGUGAUGUUGAGAAGGAGCGUGAGAAGGCACAGGUAGGUCGCUCAACCUAAAUUCAGGUGAGCACUAAA	142
UUUAUAUAGUCGGCCGCCACUGAUUUUUUUAUAUGUUUAUGUUUAUACGAGUGAUGUUCGAUAUACAGGACCGGGACUUUGGUUA [JR_SSTryptoB_Sub019]	115
UCCUUUGUUGCCAGUGAUGUUGGACAGGAAGGAGCGGGCAUAAGCCCAGGUAGGUCGCCUGUCAACUUUCUUAUAGCCCUAAGGU [KL-XArg-A16]	337

Sequence	apparent KD of K4 kissing-loop reporter [nM]
CGAGCGCGUGCGGCCGCCACUACUAUAAGUCGUCCAAGUUAGUGAUGUUGACUGAACGUCGGAAAUAGGACCGGGCAUAGUUUUA [theeternabot_sameState_KL_Trp_B_40]	300
UGUCAUGGAAACAUGACCGUUAAAAUAAAUCGAGGACCGGUACGGCCGCCACUCGUAUAGCGGUCAGUGAUGUUGACUGUAGUAC [KL-SSTryp-A form2 sub12 #dotplot2>1]	546
CAUAGGAAACUAUGUUUCUCUCUUACUGAAGGAGCGCGUGAAAACGCAGGUAGGUCGCAGAAUUUGAGAGUGAUGUUCUCAAUAA [Ex Arginine A K4 13]	116
UGUCAUUGGUCUGAUACCAGUACCCUUGGCAGCCAAGGAGUGAUGUUCCGAGGAUACCAGUGCCCUUGGCAGCAGACCGAUGACU [TheoBS 27 #DoubleAptamer #SwitchBubble]	350
UCCACGCUUAGAGGAUAUCGGAUUAGAGUGAUGUUCUAAAGACGCCCAGUGAUGUUGGAUGGUAUACGAGAAGGCUGUGGCGUGU [Same State FMN B GF5]	410
AUGAGGAGCAGUGAUCCUAUUCCAUGGGAAGGAGCGUAGGAUACUACAGGUAGGUCGCCCAGUGAUGUUGGGCGCGUGCUCUUGG [Zaqua]	146
UGACUGGAUUGAAGGAGCGCUAAACUCCUAGUGAUGUUAGGGACACGAGACAAAGUCUCGAGGCAGGUAGGUCGCAAUCUAGUCU [FiskerMod 6 - Jieux - Same State - Arginine B]	249
GGAUAGGACAGAGGAUAUGGGCUAGGCAAGAAUAACUUGUCUAGCAAAUCCAUGAGGAGUGAUGUUCCAGAAGGCUGUCCUAUCG [FmnBX 1 - #SwitchBubble #StraticStem #DoubleMagnetSystem]	143
ACCACCAGCCGCACGAUACACGGGCAUUACCGAGGACCGGUACGGCCGCCACUCGCCCGCACGCUGGAUCGAGUGAUGUUCGAUC [theeternabot_sameState_KL_Trp_A_15]	326
AGCGGCCAGUCGGCCGCCACUCCAAGCAGUGAUGUUGCUAAGUUUCUACAAGAGUGAUGUUCUUAGAGGACCGGGACUGAUGUGA [Exclusion Tryptophan B Gf 7]	157
UAGGCCGCAUACAUUAGAUAAGGUACCGAUACCAGCCUCGCACCAGGCCCUUGGCAGCGGCAUCAAAUGGGUAGUGAUGUUACCU [theeternabot_exclusion_KL_Theo_A_20]	136
GUUACGCAUGGAAGGAGCGCACUCCGAUUGGGCGACACAGUGAUGUUGUGGUUCGUUCGAAUGCAGGUAGGUCGCCAUGUGUAAC [Ex Arginine B K4 20]	142
AACACUCACGGAGUGAUGUUCUGGAAUAAACGAGGACCGGUACGGCCGCCACUCGAAAAUGAGUGAGUCCUACGAAAAGUAGGAC [Omei inspired 4]	108
AAUUUAUAUUUAUUCUUUAAAUGUUCAGAAGGAGCGUGAAUUAUCACAGGUAGGUCGCUGAGCUAGUGAUGUUGGCUAUAUACUA [whbob_Ex_Arginine_A_2t124]	138
GGCACUUUUGGUAGAAACCAUCUACCUCUAUAGGAUAUGCCGAAAGGCAGAAGGAUAGACCUACAGAGUGAUGUUCUGCGUGCCU	503
GCCCGGGCGAGUGAUGUUCGCCCACGUGAUACCAGUGCCAUCCAACACCCUUGGCAGCACGCGGGCAGUGAUGUUGCCCUUGUAU [Exclusion Theophylline A GF 4]	111
UGCAUGCUUAGAGUGAUGUUCUAAGAUGAUACCAGUGCUUUUUUGCACCCUUGGCAGCGUCUGAUUGCAUGCACGUCGAAAGACG	289
AUGCGCAGCCUGCUUACGUAUGAGCCGGAAGGAGCGGCAGAAUUGCCAGGUAGGUCGCCGGCCCAGUGAUGUUGGGAUGGUGUGG [Atusqubela]	264
ACGUGCACCAGUGAUGUUGGAAAAUAUGAAGGAGCGGGAGAAAGCCCAGGUAGGUCGCAUAAUAGCACGAGCCACGAAAGUGGCA	131
CGUUUAUAGCAGGAUACCAGUACCCAUUAAGUACGUUAAUAGUAGAGUGAUGUUCUAAAGUACCCUUGGCAGCUUCCCGUGACCC [ExTheophylB.X]	94.1
UGACAUUGCUCAGAUACCAGACAUGAGCAUCAGCCAUGUACCAAGAAAACGUACAUAAAUGUCCCUUGGCAGCUGAGCAAUGUCU [TheoBX 10]	63.8
